From patent US20190119388A1 (GREEN CROSS, published 2019)
One block for each molecule: values may come before it.

What was measured:
Assay in all cases: cell-based or functional assay
[1] = target: epidermal growth factor receptor (EGFR) on gastric cancer cell lines NCI-N87, AGS and NUGC3 (UniProt P00533)
[2] = target: T1, epidermal growth factor receptor (EGFR) on gastric cancer cell lines NCI-N87, AGS and NUGC3 (UniProt P00533 25-1210, limits assumed)
[3] = target: T1, epidermal growth factor receptor (EGFR) …; remark: listed apart in the source
[4] = target: T1, epidermal growth factor receptor (EGFR) …; remark: listed apart in the source
[5] = target: T1, epidermal growth factor receptor (EGFR) …; remark: listed apart in the source
[6] = target: T1, epidermal growth factor receptor (EGFR) …; remark: listed apart in the source
[7] = target: T1, epidermal growth factor receptor (EGFR) …; remark: listed apart in the source

Molecule: AREG (amphiregulin) (from UniProt P15514 101-198) (ligand)
increase of cell invasion (NUGC3, AREG 200 ng/ml) [1]: 1.3 fold | increase of cell invasion (NUGC3, AREG 500 ng/ml) [1]: 1.5 fold

Molecule: TGF-α (transforming growth factor-α) (from UniProt P01135 40-89) (ligand)
increase of cell invasion (NUGC3, TGF-α 10 ng/ml) [1]: 1.7 fold | increase of cell invasion (NUGC3, TGF-α 20 ng/ml) [1]: 1.9 fold | increase of cell invasion (NUGC3, TGF-α 50 ng/ml) [1]: 1.9 fold | increase of invasion against control (AGS, TGF-α 10 ng/ml) [1]: 1.8 fold | increase of invasion against control (AGS, TGF-α 20 ng/ml) [1]: 1.8 fold | increase of invasion against control (AGS, TGF-α 50 ng/ml) [1]: 1.9 fold

More lines, now with the values ahead:

increase of cell invasion (NUGC3, HB-EGF 10 ng/ml) [1]: 2.3 fold | increase of cell invasion (NUGC3, HB-EGF 20 ng/ml) [1]: 3.5 fold | increase of cell invasion (NUGC3, HB-EGF 50 ng/ml) [1]: 4.8 fold | increase of invasion against control (AGS, HB-EGF 10 ng/ml) [1]: 4.1 fold | increase of invasion against control (AGS, HB-EGF 20 ng/ml) [1]: 4.5 fold | increase of invasion against control (AGS, HB-EGF 50 ng/ml) [1]: 3.9 fold
Molecule: HB-EGF (heparin binding-EGF-like growth factor) (from UniProt Q99075 63-148) (ligand)

invaded cells relative to HB-EGF alone, % of OD (AGS, HB-EGF 20 ng/ml, antibody 1 µg/ml), Average (%) [2]: 49.6% | invaded cells relative to HB-EGF alone, % of OD (AGS, HB-EGF 20 ng/ml, antibody 1 µg/ml), set 1-1 [2]: 50.6% | invaded cells relative to HB-EGF alone, % of OD (AGS, HB-EGF 20 ng/ml, antibody 1 µg/ml), set 1-2 [2]: 56.8% | invaded cells relative to HB-EGF alone, % of OD (AGS, HB-EGF 20 ng/ml, antibody 1 µg/ml), set 2-1 [2]: 57.7% | invaded cells relative to HB-EGF alone, % of OD (AGS, HB-EGF 20 ng/ml, antibody 1 µg/ml), set 2-2 [2]: 64.2% | invaded cells relative to HB-EGF alone, % of OD (AGS, HB-EGF 20 ng/ml, antibody 1 µg/ml), set 3-1 [2]: 33.3% | invaded cells relative to HB-EGF alone, % of OD (AGS, HB-EGF 20 ng/ml, antibody 1 µg/ml), set 3-2 [2]: 34.9% | invaded cells relative to TGF-α alone, % of OD (AGS, TGF-α 20 ng/ml, antibody 1 µg/ml), Average (%) [3]: 44.1% | invaded cells relative to TGF-α alone, % of OD (AGS, TGF-α 20 ng/ml, antibody 1 µg/ml), set 1-1 [3]: 45.1% | invaded cells relative to TGF-α alone, % of OD (AGS, TGF-α 20 ng/ml, antibody 1 µg/ml), set 1-2 [3]: 41.6% | invaded cells relative to TGF-α alone, % of OD (AGS, TGF-α 20 ng/ml, antibody 1 µg/ml), set 2-1 [3]: 31.2% | invaded cells relative to TGF-α alone, % of OD (AGS, TGF-α 20 ng/ml, antibody 1 µg/ml), set 2-2 [3]: 33.8% | invaded cells relative to TGF-α alone, % of OD (AGS, TGF-α 20 ng/ml, antibody 1 µg/ml), set 3-1 [3]: 57.9% | invaded cells relative to TGF-α alone, % of OD (AGS, TGF-α 20 ng/ml, antibody 1 µg/ml), set 3-2 [3]: 54.8% | invaded cells relative to AREG alone, % of OD (AGS, AREG 1,000 ng/ml, antibody 1 µg/ml), Average (%) [4]: 55.4% | invaded cells relative to AREG alone, % of OD (AGS, AREG 1,000 ng/ml, antibody 1 µg/ml), set 1-1 [4]: 55.3% | invaded cells relative to AREG alone, % of OD (AGS, AREG 1,000 ng/ml, antibody 1 µg/ml), set 1-2 [4]: 61.3% | invaded cells relative to AREG alone, % of OD (AGS, AREG 1,000 ng/ml, antibody 1 µg/ml), set 2-1 [4]: 51.8% | invaded cells relative to AREG alone, % of OD (AGS, AREG 1,000 ng/ml, antibody 1 µg/ml), set 2-2 [4]: 53.1% | invaded cells relative to HB-EGF alone, % of OD (NUGC3, HB-EGF 50 ng/ml, antibody 1 µg/ml), Average (%) [5]: 39.2% | invaded cells relative to HB-EGF alone, % of OD (NUGC3, HB-EGF 50 ng/ml, antibody 1 µg/ml), set 1-1 [5]: 18.8% | invaded cells relative to HB-EGF alone, % of OD (NUGC3, HB-EGF 50 ng/ml, antibody 1 µg/ml), set 1-2 [5]: 21% | invaded cells relative to HB-EGF alone, % of OD (NUGC3, HB-EGF 50 ng/ml, antibody 1 µg/ml), set 2-1 [5]: 57.7% | invaded cells relative to HB-EGF alone, % of OD (NUGC3, HB-EGF 50 ng/ml, antibody 1 µg/ml), set 2-2 [5]: 64.2% | invaded cells relative to HB-EGF alone, % of OD (NUGC3, HB-EGF 50 ng/ml, antibody 1 µg/ml), set 3-1 [5]: 41.7% | invaded cells relative to HB-EGF alone, % of OD (NUGC3, HB-EGF 50 ng/ml, antibody 1 µg/ml), set 3-2 [5]: 31.9% | invaded cells relative to TGF-α alone, % of OD (NUGC3, TGF-α 50 ng/ml, antibody 1 µg/ml), Average (%) [6]: 32.5% | invaded cells relative to TGF-α alone, % of OD (NUGC3, TGF-α 50 ng/ml, antibody 1 µg/ml), set 1-1 [6]: 31.5% | invaded cells relative to TGF-α alone, % of OD (NUGC3, TGF-α 50 ng/ml, antibody 1 µg/ml), set 1-2 [6]: 27.3% | invaded cells relative to TGF-α alone, % of OD (NUGC3, TGF-α 50 ng/ml, antibody 1 µg/ml), set 2-1 [6]: 31.4% | invaded cells relative to TGF-α alone, % of OD (NUGC3, TGF-α 50 ng/ml, antibody 1 µg/ml), set 2-2 [6]: 30% | invaded cells relative to TGF-α alone, % of OD (NUGC3, TGF-α 50 ng/ml, antibody 1 µg/ml), set 3-1 [6]: 36.4% | invaded cells relative to TGF-α alone, % of OD (NUGC3, TGF-α 50 ng/ml, antibody 1 µg/ml), set 3-2 [6]: 38.3% | invaded cells relative to AREG alone, % of OD (NUGC3, AREG 500 ng/ml, antibody 1 µg/ml), Average (%) [7]: 54.8% | invaded cells relative to AREG alone, % of OD (NUGC3, AREG 500 ng/ml, antibody 1 µg/ml), set 1-1 [7]: 40.2% | invaded cells relative to AREG alone, % of OD (NUGC3, AREG 500 ng/ml, antibody 1 µg/ml), set 1-2 [7]: 50.7% | invaded cells relative to AREG alone, % of OD (NUGC3, AREG 500 ng/ml, antibody 1 µg/ml), set 2-1 [7]: 59.8% | invaded cells relative to AREG alone, % of OD (NUGC3, AREG 500 ng/ml, antibody 1 µg/ml), set 2-2 [7]: 59.6% | invaded cells relative to AREG alone, % of OD (NUGC3, AREG 500 ng/ml, antibody 1 µg/ml), set 3-1 [7]: 62.4% | invaded cells relative to AREG alone, % of OD (NUGC3, AREG 500 ng/ml, antibody 1 µg/ml), set 3-2 [7]: 56.1%
B1: GC1118 (antibody, human IgG1, kappa, V domains shown)
VH: EVQLVESGGGVVQPGGSLRLSCAASGFTFSDYDMSWIRQAPGKGLEWVSGILGGSERSYYRDSVKGRFTISRDNSRKTLYLQMNSLRAEDTAVYYCARHGSPGYTLYAWDYWGQGTTVTVSS
VL: DIVMTQTPLSLPVTPGEPASISCRSNQDLTHSNGNTYLEWYLQKPGQSPRLLIYKVSNRFSGVPDRFSGSGAGTDFTLRISRVEAEDVGVYYCMQGTHWPWTFGQGTKVDIKR
